Measured values published in patent publication US20150118747A1, “ELECTROSTRETCHED POLYMER MICROFIBERS FOR MICROVASCULATURE DEVELOPMENT” (The Johns Hopkins University, priority 2013, published 2015).

Legend:
ECFCs [1] = test: Actin and microtubule disruption studies, ECFCs on fibrin microfibers; assay type: cell-based, Human; details: for actin and microtubule organization, respectively / wrapping organization of the deposited ECM molecules compared to control cultures: ECFCs seeded on nanopatterned fibrin microfibers; for average angle of ECM orientation or variance of all angles, vs no drug: drug added 24 h after ECFC seeding on fibrin microfibers, 24 and 48 hrs of treatment
Experimental: The cell areas and perimeters were measured by fitting an ellipse to each cell using the LSM 510 software. Cytoskeletal alignment angle was calculated by measuring the angle between the long axis of each ellipse and the longitudinal axis of the microfiber, found by drawing a line at the edges of the microfiber in its image projection. ECM angle of orientation was measured using the LSM 510 software by drawing a line following the ECM deposition and finding the angle between the line and the longitudinal axis of the microfiber. Graphs were plotted with 5-95% confidence intervals. Unpaired two-tailed Welch-corrected t-tests were performed where appropriate (GraphPad Prism® 5.01, GraphPad Software, San Diego, Calif.). Significance levels were determined between samples examined and were set at *p<0.05, **p<0.01, and ***p<0.001.
Cytochalasin D or nocodazole were dissolved in DMSO (Table 1). ECFCs were cultured on Petri dishes (control) or fibrin microfibers in ECFC media with 50 ng/mL of VEGF (Pierce, Rockford, Ill., USA) supplemented with either […] cytochalasin D or […] nocodazole, from either day 0 or day 1 after seeding. F-actin or a-tubulin organization and ECM deposition was analyzed after 1, 2, or 3 days of treatment. Final concentration of DMSO in cell culture medium was kept at 0.1% (v/v). Controls were treated with DMSO alone at the same concentration.

ECFCs [2] = test: Live/Dead assay of ECFCs after plasmin treatment; assay type: cell-based; details: for cell viability: confluent ECFCs, data not shown; for live cells: confluent ECFCs in 2D, serum-free
Experimental: (§1) Fibrin microfibers with or without cells were treated with 15, 1, 0.25, and 0.1 CU/mL plasmin from human plasma (Athens Research and Technology, Athens, Ga.) in DMEM (Life Technologies, Grand Island, N.Y.) for 1, 6, 12, and 24 hrs respectively in a humidified incubator at 37° C. in a 5% CO2 atmosphere. Samples were imaged immediately after treatment.
ECFCs cultured in 2D and treated with plasmin were incubated with 2 μM calcein AM and 4 μM ethidium homodimer (Invitrogen) in PBS for 30 min at 37° C. and 5% CO2. Samples were imaged immediately after and the number of live and dead cells was counted using ImageJ (NIH, Bethesda, Md.).

fibrin microfibers = test: Plasmin treatment: degradation of fibrin microfibers without cells; assay type: biochemical; details: serum-free media
Experimental: as §1
The fibrin microfiber core was degraded after endothelial cell (EC) layer formation while maintaining both cellular viability and intact ECM organization. Fibrin microfibers without cells were treated with different concentrations of plasmin.

| Molecule | actin and microtubule organization, respectively (ECFCs [1]) | wrapping organization of the deposited ECM molecules compared to control cultures (ECFCs [1]) | average angle of ECM orientation or variance of all angles, vs no drug (ECFCs [1]) | cell viability (ECFCs [2]; 1 hr treatment (15 CU/mL plasmin)) | cell viability (ECFCs [2]; 6 hr treatment (1 CU/mL plasmin)) | live cells (ECFCs [2]; 12 hr treatment (0.25 CU/mL plasmin)) | live cells (ECFCs [2]; 24 hr treatment (0.1 CU/mL plasmin)) | time in which plasmin degraded the microfibers (fibrin microfibers; 0.1 CU/mL plasmin) | time in which plasmin degraded the microfibers (fibrin microfibers; 0.25 CU/mL plasmin) | time in which plasmin degraded the microfibers (fibrin microfibers; 1 CU/mL plasmin) | time in which plasmin degraded the microfibers (fibrin microfibers; 15 CU/mL plasmin) |
| --- | --- | --- | --- | --- | --- | --- | --- | --- | --- | --- | --- |
| C=C1[C@@H](C)[C@H]2[C@H](Cc3ccccc3)NC(=O)[C@]23[C@H](OC(C)=O)/C=C/[C@@](C)(O)C(=O)[C@@H](C)C/C=C/[C@H]3[C@@H]1O [Cytochalasin D] | effectively altered | did not alter | No difference |  |  |  |  |  |  |  |  |
| COC(=O)Nc1nc2ccc(C(=O)c3cccs3)cc2[nH]1 [nocodazole] | effectively altered | did not alter | no difference |  |  |  |  |  |  |  |  |
| plasmin: plasmin from human plasma (Athens Research and Technology), enzyme that degrades fibrin (protein, UniProt P00747 20-580; P00747 581-810, looked up, plasmin, plasmin from human plasma (Athens Research and Technology), enzyme that degrades fibrin) Plasmin heavy chain A: EPLDDYVNTQGASLFSVTKKQLGAGSIEECAAKCEEDEEFTCRAFQYHSKEQQCVIMAENRKSSIIIRMRDVVLFEKKVYLSECKTGNGKNYRGTMSKTKNGITCQKWSSTSPHRPRFSPATHPSEGLEENYCRNPDNDPQGPWCYTTDPEKRYDYCDILECEEECMHCSGENYDGKISKTMSGLECQAWDSQSPHAHGYIPSKFPNKNLKKNYCRNPDRELRPWCFTTDPNKRWELCDIPRCTTPPPSSGPTYQCLKGTGENYRGNVAVTVSGHTCQHWSAQTPHTHNRTPENFPCKNLDENYCRNPDGKRAPWCHTTNSQVRWEYCKIPSCDSSPVSTEQLAPTAPPELTPVVQDCYHGDGQSYRGTSSTTTTGKKCQSWSSMTPHRHQKTPENYPNAGLTMNYCRNPDADKGPWCFTTDPSVRWEYCNLKKCSGTEASVVAPPPVVLLPDVETPSEEDCMFGNGKGYRGKRATTVTGTPCQDWAAQEPHRHSIFTPETNPRAGLEKNYCRNPDGDVGGPWCYTTNPRKLYDYCDVPQCAAPSFDCGKPQVEPKKCPGR Plasmin light chain B: VVGGCVAHPHSWPWQVSLRTRFGMHFCGGTLISPEWVLTAAHCLEKSPRPSSYKVILGAHQEVNLEPHVQEIEVSRLFLEPTRKDIALLKLSSPAVITDKVIPACLPSPNYVVADRTECFITGWGETQGTFGAGLLKEAQLPVIENKVCNRYEFLNGRVQSTELCAGHLAGGTDSCQGDSGGPLVCFEKDKYILQGVTSWGLGCARPNKPGVYVRVSRFVTWIEGVMRNN |  |  |  | poor cell viability | poor cell viability | 80.6±4.3% | 65.2±1.8% | ~24 h | ~12 h | ~6 h | about 1 hrs |
